Legend:
[1] = biological target: the molecule itself; test: size exclusion chromatography and negative stain EM, self-assembly
[2] = biological target: the molecule itself; test: electron cryo-tomography of released vesicles, self-assembly

B1: Myr-I3-01-myc-p6 (designed binder)
chain: MGARASGSKSGSGSDSGSKMEELFKKHKIVAVLRANSVEEAKKKALAVFLGGVHLIEITFTVPDADTVIKELSFLKEMGAIIGAGTVTSVEQCRKAVESGAEFIVSPHLDEEISQFCKEKGVFYMPGVMTPTELVKAMKLGHTILKLFPGEVVGPQFVKAMKGPFPNVKFVPTGGVNLDNVCEWFKAGVLAVGVGSALVKGTPVEVAEKAKAFVEKIRGCTEQKLISEEDLQSRPEPTAPPEESFRSGVETTTPPQKQEPIDKELYPLTSLRSLFGNDPSSQ
modifications: N-terminal myristoylation motif (6 N-terminal amino acids of HIV Gag); not myristoylated when produced in E. coli
notes: Forms icosahedral assemblies like I3-01; also called Myr-I3-01-p6
binding result [1]: binds

B2: EPN-01 (designed binder)
chain: MGARASGSKSGSGSDSGSKIEELFKKHKIVAVLRANSVEEAKKKALAVFLGGVHLIEITFTVPDADTVIKELSFLKEMGAIIGAGTVTSVEQCRKAVESGAEFIVSPHLDEEISQFCKEKGVFYMPGVMTPTELVKAMKLGHTILKLFPGEVVGPQFVKAMKGPFPNVKFVPTGGVNLDNVCEWFKAGVLAVGVGSALVKGTPVEVAEKAKAFVEKIRGCTEQKLISEEDLQSRPEPTAPPEESFRSGVETTTPPQKQEPIDKELYPLTSLRSLFGNDPSSQ
modifications: N-terminal myristoylation motif (6 N-terminal amino acids of HIV Gag)
notes: Every subunit bears the M domain; also called Myr1-12GS-I3-01(M3I)-myc-Late1
binding result [2]: binds
